{
  "source": "paper PMC10959958",
  "molecular_target": "4-HNE-modified recombinant C99 with mutation Lys53Arg (human)",
  "assay": "SDS-PAGE with Western blot; recombinant C99 or C99^Lys53Arg reacted with 50-fold (R)-4-HNE (25 mM HEPES, 150 mM NaCl, pH 7.4, 37 °C, 1 h); C99 detected by C1/6.1 antibody, adducts by 4-HNE antibody; oligomer bands on the gel",
  "data": [
    {"substance": "4-HNE-modified recombinant C99 with mutation Lys53Arg (domain or fragment)", "values": [
      {"measurement": "stoichiometry N", "value": 2}
    ]}
  ]
}
